From PMC10911177, “Exploring the ATG9A interactome uncovers interaction with VPS13A” (Journal of cell science, 2024) come the findings set out here.

This experiment deals with T1, 3×Flag−His6−ATG9A (purified) (UniProt Q7Z3C6 1-839).
T1 construct: ATG9A; also called Flag−ATG9A; 3×Flag−ATG9A
T1 sequence (looked up): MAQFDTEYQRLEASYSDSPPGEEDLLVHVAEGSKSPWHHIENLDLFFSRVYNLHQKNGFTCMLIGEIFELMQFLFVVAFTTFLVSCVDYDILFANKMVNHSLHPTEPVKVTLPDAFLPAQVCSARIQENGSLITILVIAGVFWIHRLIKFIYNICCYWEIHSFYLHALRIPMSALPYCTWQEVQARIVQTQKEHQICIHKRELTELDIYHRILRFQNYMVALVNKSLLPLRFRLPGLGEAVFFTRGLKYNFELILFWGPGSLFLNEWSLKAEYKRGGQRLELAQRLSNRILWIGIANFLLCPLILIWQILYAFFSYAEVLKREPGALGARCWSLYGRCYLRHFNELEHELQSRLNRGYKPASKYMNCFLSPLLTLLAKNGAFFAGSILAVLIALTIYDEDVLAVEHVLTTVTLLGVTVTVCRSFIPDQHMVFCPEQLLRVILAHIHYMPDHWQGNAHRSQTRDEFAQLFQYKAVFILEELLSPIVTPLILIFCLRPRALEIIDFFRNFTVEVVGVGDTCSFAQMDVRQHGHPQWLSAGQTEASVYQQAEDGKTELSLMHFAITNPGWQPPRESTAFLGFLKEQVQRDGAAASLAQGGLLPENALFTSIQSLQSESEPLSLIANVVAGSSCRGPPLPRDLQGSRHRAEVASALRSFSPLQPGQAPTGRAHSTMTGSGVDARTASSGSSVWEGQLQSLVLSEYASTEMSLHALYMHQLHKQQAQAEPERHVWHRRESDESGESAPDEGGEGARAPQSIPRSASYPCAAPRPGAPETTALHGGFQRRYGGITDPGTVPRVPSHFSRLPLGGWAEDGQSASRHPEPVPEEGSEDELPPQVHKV
Nature of the experiment: co-IP; in vitro IP: 100 μg purified 3×Flag−GFP−VPS13A fragment 4 mixed with 10 μg purified ATG9A at 4°C in 0.002% LMNG:CHS (5:1), GFP-Trap beads, four washes with VPS13 buffer with detergent; immunoblot. Particulars: both partners purified.

B1: 3×Flag−eGFP−VPS13A fragment 4 (purified) (domain or fragment, human, UniProt Q96RL7 2554-3174, looked up)
chain: VVWETKPKKKARWKPMSVKHTEKLEREFKEYTESSPSEDKVIQLDTNVPVRLTPTGHNMKILQPHVIALRRNYLPALKVEYNTSAHQSSFRIQIYRIQIQNQIHGAVFPFVFYPVKPPKSVTMDSAPKPFTDVSIVMRSAGHSQISRIKYFKVLIQEMDLRLDLGFIYALTDLMTEAEVTENTEVELFHKDIEAFKEEYKTASLVDQSQVSLYEYFHISPIKLHLSVSLSSGREEAKDSKQNGGLIPVHSLNLLLKSIGATLTDVQDVVFKLAFFELNYQFHTTSDLQSEVIRHYSKQAIKQMYVLILGLDVLGNPFGLIREFSEGVEAFFYEPYQGAIQGPEEFVEGMALGLKALVGGAVGGLAGAASKITGAMAKGVAAMTMDEDYQQKRREAMNKQPAGFREGITRGGKGLVSGFVSGITGIVTKPIKGAQKGGAAGFFKGVGKGLVGAVARPTGGIIDMASSTFQGIKRATETSEVESLRPPRFFNEDGVIRPYRLRDGTGNQMLQVMENGRFAKYKYFTHVMINKTDMLMITRRGVLFVTKGTFGQLTCEWQYSFDEFTKEPFIVHGRRLRIEAKERVKSVFHAREFGKIINFKTPEDARWILTKLQEAREPSPSL
notes: VPS13A, human, fragment 4, residues 2554-3174; Subcloned into pcDNA3.1(+); The methods partly write '3×Flag−eGFP−VPS13A' without 'fragment 4'; also called Flag−GFP−VPS13A4; 3×Flag-VPS13A fragment 4
B1: the binding result is listed as “binds”.
